Results from PMC10128030, “Molecular Characterization of the ClpC AAA+ ATPase in the Biology of Chlamydia trachomatis” (mBio, 2023).
“And” between values parts separate entries of the source, which are not always exact repeats. Equal entries are not always repeated.

Target: the molecule itself
Assay: cross-linking; HeLa cells infected with C. trachomatis L2 (wild type or transformants induced at 16 hpi) treated with 0.25 mM DSS in HBSS pH 7.6 on ice at 4°C for at least 1 h; whole-cell lysates on 8% SDS-PAGE, immunoblot with anti-ClpC (endogenous) or anti-6×His (ectopic)

B1: endogenous ClpC of wild-type C. trachomatis serovar L2 (natural protein)
chain: not shown
notes: ClpC AAA+ ATPase of Chlamydia trachomatis serovar L2; monomer of the expected size 95 kDa; source: endogenous, wild-type Ctr L2 in infected HeLa cells, whole-cell lysate
stoichiometry N: 2 and 6
